Key:
[1] = target: murine double minute 2 (MDM2) protein fragment; experiment: atomic force microscopy; topographic maps of 20 x 20 µm^2 of the MDM2-functionalised photonic crystal surface after incubation with p53 (1.5 uM, 20 min); binding spots 10-20 nm high counted as p53•MDM2 complex; set-up: unit not given here
[2] = target: murine double minute 2 (MDM2) protein fragment; experiment: photonic crystal bound-states-in-the-continuum resonance shift (label-free optical biosensor); MDM2 immobilised on the Si3N4 photonic crystal by APTES and BS3 (1.5 uM in 20 mM HEPES pH 7.4, 4 °C overnight), blocked with 5% non-fat dried milk in PBS; p53 1.5 uM in PBS, 20 min at room temperature, washed with PBS; transmission spectrum at θ = 0°

A surface density of the complex [1] of 0.24 and a shift of the resonance wavelength [2] of 2.4 nm were found for “p53 protein fragment (interacting domain of p53) (domain or fragment)” in this work.
